Measurements: publication PMC9246348

Tests used:
[1] = substrate: Nc1ccn([C@@H]2O[C@H](CO)[C@@H](O)[C@H]2O)c(=O)n1; assay: ADP-Glo kinase assay; format: biochemical, Homo sapiens; conditions: 100 µM ATP, 50 mM Tris pH 7.5, 5 mM MgCl2, 2 mM DTT, room temperature
[2] = substrate: O=c1ccn([C@@H]2O[C@H](CO)[C@@H](O)[C@H]2O)c(=O)[nH]1; assay: ADP-Glo kinase assay; format: biochemical, Homo sapiens; conditions: 100 µM ATP, 50 mM Tris pH 7.5, 5 mM MgCl2, 2 mM DTT, room temperature

B1: UCK2 (Homo sapiens) (protein)
chain: MAGDSEQTLQNHQQPNGGEPFLIGVSGGTASGKSSVCAKIVQLLGQNEVDYRQKQVVILSQDSFYRVLTSEQKAKALKGQFNFDHPDAFDNELILKTLKEITEGKTVQIPVYDFVSHSRKEETVTVYPADVVLFEGILAFYSQEVRDLFQMKLFVDTDADTRLSRRVLRDISERGRDLEQILSQYITFVKPAFEEFCLPTKKYADVIIPRGADNLVAINLIVQHIQDILNGGPSKRQTNGCLNGYTPSRKRQASESSSRPH
[1]
  Km: 25.07 µM
  Vmax: 1.09 µmol/min/mg
  kcat/Km: 35000 M⁻¹ s⁻¹
[2]
  Km: 207.3 µM
  Vmax: 3.98 µmol/min/mg
  kcat/Km: 15000 M⁻¹ s⁻¹
